According to patent US12527846B2, “Immunodominant proteins and fragments in multiple sclerosis” (UNIVERSITÄT ZÜRICH, priority 2018, dated 2026):

Tests used:
[1] = tested on: CSF-infiltrating CD4+ T cells; assay: Recognition of GDP-L-fucose synthase peptides by PHA-expanded CSF-infiltrating CD4+ T cells from 31 CIS/MS patients; format: cell-based, human; conditions: three-cluster k-means on patient scores
Experimental: In order to find out if specific recognition of GDP-L-fucose synthase occurs in CSF-infiltrating CD4+ T cells in patients with different forms of MS (the majority CIS and RRMS), a new protocol was developed to expand fresh CSF-infiltrating CD4+ T cells to high numbers in a single round to minimize variations in the original T cell repertoire. Resting PHA-expanded CSF-infiltrating CD4+ T cells, T cells that are also derived from the CNS compartment, from 31 CIS/MS patients were tested in quadruplicate with the 62 overlapping GDP-L-fucose synthase peptides presented by autologous irradiated PBMCs, as well as with the seven myelin peptides, CEF peptide pool and control beads. All stimulatory indices (Sls; except control beads) were pooled and SI values less than one were treated as having unit value. Cluster k-means analysis was performed to determine the optimal cut-off to differentiate responsive SI values from nonresponsive in this patient population. […] Subsequently, for each patient, all peptides having a median SI (of the quadruplicate wells) greater than 1.455 were identified as positive responses.
Next, patient scores were constructed by calculating the sum of each responsive peptide median SI, weighted by the number of total patients that responded to that peptide. […]
Proliferation was measured 72 h after stimulation by 3H-thymidine (Hartmann Analytic, Braunschweig, Germany) incorporation in a scintillation counter (Wallac 1450, PerkinElmer, Rodgau-Jurgesheim, Germany). The stimulatory index (SI) was calculated as follows: SI=Median (replicates cpm peptide)/Median (replicates cpm without peptide). Proliferation was also measured using a Click-iT™ EdU Flow Cytometry Assay Kit (APC, Molecular Probes, Invitrogen) following manufacturer's instructions. Cells were stained with the following antibodies anti-CD3 (PE-Cy-7, e-Bioscience, San Diego, CA) and anti-TRBV-21 (FITC, Beckman Coulter, Brea, CA) and analyzed by flow cytometry.

[2] = tested on: CD45RA-depleted PBMCs of natalizumab-treated MS patients; assay: RASGRP2 reactivity of peripheral blood-derived memory T cells (thymidine incorporation); format: cell-based, human; conditions: n=8 natalizumab-treated MS patients; peptide pools 10 μM or whole protein 0.3 μg/ml, day 7
Experimental: In order to test reactivity to RASGRP2 in peripheral blood-derived memory T cells, cryopreserved PBMCs (1×10^8 cells) of natalizumab-treated MS patients (NAT; n=8) were thawed and afterwards depleted for CD45RA-expressing cells using magnetic cell sorting (Miltenyi). 2×10^8 CD45RA-depleted PBMCs were seeded per well (10-15 replicate wells per condition) in X-Vivo medium and were either treated with vehicle (DMSO), with CD2/CD3/CD28 beads or pulsed with RASGRP2 peptide pools (final concentration of pool 10 μM) or whole purified RASGRP2 protein (Origene; 0.3 μg/ml). The 15mer-overlapping peptides covering the whole RASGRP2 protein (SEQ ID NO:s 38-98) were organized in 9 peptide pools with 7 peptides per pool covering the sequence of RASGRP2 from N- (pool 1) to C-terminus (pool 9). Thymidine incorporation assay was used to measure proliferation responses to RASGRP2. At day 7 the cells were pulsed with 1 μCi of methyl-3H-thymidine per well (Hartmann Analytic) and harvested after 15 h on a membrane (Tomtec). Incorporation was measured by p-scintillation counting (Wallac 1450, PerkinElmer). The results are shown as dots (mean±SEM). Stimulatory index (SI) was calculated as ratio of peptide or protein stimulation vs. vehicle control. SI values>2 were considered as positive (FIG. 10).

B1: GDP L-fucose synthase (protein, listed as Homo sapiens)
chain: MGEPQGSMRILVTGGSGLVGKAIQKVVADGAGLPGEDWVFVSSKDADLTDTAQTRALFEKVQPTHVIHLAAMVGGLFRNIKYNLDFWRKNVHMNDNVLHSAFEVGARKVVSCLSTCIFPDKTTYPIDETMIHNGPPHNSNFGYSYAKRMIDVQNRAYFQQYGCTFTAVIPTNVFGPHDNFNIEDGHVLPGLIHKVHLAKSSGSALTVWGTGNPRRQFIYSLDLAQLFIWVLREYNEVEPIILSVGEEDEVSIKEAAEAVVEAMDFHGEVTFDTTKSDGQFKKTASNSKLRTYLPDFRFTPFKQAVKETCAWFTDNYEQARK
notes: whole protein 1-321, GenBank AAH93061.1 or UniProtKB/Swiss-Prot Q13630
**Q.** How did the “patients characterized as high responders” value [1] turn out when B1 was run?
**A.** 19.35%

**Q.** What about the “patients characterized as moderate responders” value [1] of the same molecule?
**A.** 19.35%

**Q.** What about the “patients characterized as nonresponders” value [1] of the same molecule?
**A.** 61.3%

B2: RASGRP2: RASGRP2 peptide pools (15mer-overlapping peptides, SEQ ID NOs 38-98, 9 pools) or whole purified RASGRP2 protein (Origene) (protein, listed as Homo sapiens)
chain: AAAAARPAGGSARRWGRPGRCGLLAAGPKRVRSEPGGRLPERSLGPAHPAPAAMAGTLDLDKGCTVEELLRGCIEAFDDSGKVRDPQLVRMFLMMHPWYIPSSQLAAKLLHIYQQSRKDNSNSLQVKTCHLVRYWISAFPAEFDLNPELAEQIKELKALLDQEGNRRHSSLIDIDSVPTYKWKRQVTQRNPVGQKKRKMSLLFDHLEPMELAEHLTYLEYRSFCKILFQDYHSFVTHGCTVDNPVLERFISLFNSVSQWVQLMILSKPTAPQRALVITHFVHVAEKLLQLQNFNTLMAVVGGLSHSSISRLKETHSHVSPETIKLWEGLTELVTATGNYGNYRRRLAACVGFRFPILGVHLKDLVALQLALPDWLDPARTRLNGAKMKQLFSILEELAMVTSLRPPVQANPDLLSLLTVSLDQYQTEDELYQLSLQREPRSKSSPTSPTSCTPPPRPPVLEEWTSAAKPKLDQALVVEHIEKMVESVFRNFDVDGDGHISQEEFQIIRGNFPYLSAFGDLDQNQDGCISREEMVSYFLRSSSVLGGRMGFVHNFQESNSLRPVACRHCKALILGIYKQGLKCRACGVNCHKQCKDRLSVECRRRAQSVSLEGSAPSPSPMHSHHHRAFSFSLPRPGRRGSRPPEIREEEVQTVEDGVFDIHL
**Q.** How did the “donors responding (SI values>2 positive)” value [2] turn out when B2 was run?
**A.** All 8 donors responded
